By stoichiometry N is commonly meant a count of units in the complex or per binding partner.

The record followed here is PMC11404848, “Stenotrophomonas maltophilia uses a c-di-GMP module to sense the mammalian body temperature during infection” (PLOS Pathogens, 2024).

Data set [1] addresses BtsD^ΔSP (Stenotrophomonas maltophilia CGMCC 1.1788). Briefly: native gel or EMSA; purified BtsD^ΔSP in 2 mM HEPES, 20 mM K2HPO4, pH 7.9, 2 h at 28°C or 37°C, directly or after a gradual 30-min upshift from 0°C; native gel; fewer tetramers at 37°C. On the technique in general: A gel shift assay detects complexes by their altered migration in electrophoresis.
For data set [2], the system named is T1, BtsR (Stenotrophomonas maltophilia CGMCC 1.1788), ORF:ddddda88.
T1 sequence: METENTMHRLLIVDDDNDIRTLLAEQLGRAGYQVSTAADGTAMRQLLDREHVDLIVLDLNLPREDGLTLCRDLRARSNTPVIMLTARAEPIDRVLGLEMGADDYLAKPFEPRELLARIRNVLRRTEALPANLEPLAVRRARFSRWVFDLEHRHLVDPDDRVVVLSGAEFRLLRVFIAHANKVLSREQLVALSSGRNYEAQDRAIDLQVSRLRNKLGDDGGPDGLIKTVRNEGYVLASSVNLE
Briefly: EMSA.

On to BtsD^ΔSP (enzyme), for which, in data set [1], the stoichiometry N was 4.
On to “CCGGTGAGGTTCGAAAAGCGGGTTCTGGTAGTGCCGGCCGCTGGCCGGCAACCCGACCTTCGCTGATTGCCGGCCAGCGGCCGGCACTACCATGCCGCTCTTGCTCCCTTTCACGCATCCCCCCCCCCCGCCCCTTGACCTCAACCAATGTTGAGGTGCGATAACAGTCTCCCCACGGCCAGCCCTCTGGCCTTCCCCACGGAGATTGCTTCA (double strand) [sod1-3 promoter probe]”, for which the binding entry in data set [2] is given as “binds”.
